Reference: patent US20220406376A1 (MacroGenics, published 2022)

Key:
[1] = target: T1, CD137 on the surface of cells (activated human T cells; engineered CHO cells) (human, UniProt Q07011 24-255); assay: flow cytometry on activated pan T cells gated CD8, anti-hFc APC MFI
T1 construct: whole, on cells; also called human CD137; cell surface expressed CD137

[2] = target: T2, HER2/neu on the surface of target cells (N87, JIMT-1, MCF-7, MDA-MB231) (UniProt P04626 23-1255, limits assumed); assay: flow cytometry on N87 gastric cancer cells, anti-hFc APC MFI
T2 construct: whole, on cells

T1 sequence (Q07011 24-255, change not shown): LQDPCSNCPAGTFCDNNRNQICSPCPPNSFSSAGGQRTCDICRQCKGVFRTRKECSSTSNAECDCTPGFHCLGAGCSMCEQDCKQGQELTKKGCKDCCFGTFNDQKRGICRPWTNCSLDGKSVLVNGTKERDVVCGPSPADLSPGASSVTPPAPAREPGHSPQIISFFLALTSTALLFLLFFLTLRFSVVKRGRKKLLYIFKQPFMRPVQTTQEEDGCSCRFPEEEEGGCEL

Row | Binder | EC50 (read off the curve) [1] [nM] | EC50 (read off the curve) [2] [nM]
1 | DART-F (bispecific antibody, human IgG1, kappa, L234A L235A) heavy: QVQLVQSGAEVKKPGASVKVSCKASGYTFTNYGMNWVRQAPGQGLEWMGWINTNIGEPTYTEEFKGRVTMTRDTSISTAYMELSRLRSDDTAVYYCARDDGYGNRVSYWGQGTLVTVSSASTKGPSVFPLAPSSKSTSGGTAALGCLVKDYFPEPVTVSWNSGALTSGVHTFPAVLQSSGLYSLSSVVTVPSSSLGTQTYICNVNHKPSNTKVDKRVEPKSCDKTHTCPPCPAPEAAGGPSVFLFPPKPKDTLMISRTPEVTCVVVDVSHEDPEVKFNWYVDGVEVHNAKTKPREEQYNSTYRVVSVLTVLHQDWLNGKEYKCKVSNKALPAPIEKTISKAKGQPREPQVYTLPPSREEMTKNQVSLSCAVKGFYPSDIAVEWESNGQPENNYKTTPPVLDSDGSFFLVSKLTVDKSRWQQGNVFSCSVMHEALHNRYTQKSLSLSPGK light: DIQMTQSPSSLSASVGDRVTITCKASQDISNYLSWFQQKPGKAPKTLIYRANRLQSGVPSRFSGSGSGTDFTLTISSLQPEDFATYYCLQHDEFPWTFGQGTKLEIKRTVAAPSVFIFPPSDEQLKSGTASVVCLLNNFYPREAKVQWKVDNALQSGNSQESVTEQDSKDSTYSLSSTLTLSKADYEKHKVYACEVTHQGLSSPVTKSFNRGEC chain 1: QVQLVQSGAEVKKPGASVKVSCKASGYTFTNYGMNWVRQAPGQGLEWMGWINTNIGEPTYTEEFKGRVTMTRDTSISTAYMELSRLRSDDTAVYYCARDDGYGNRVSYWGQGTLVTVSSASTKGPSVFPLAPSSKSTSGGTAALGCLVKDYFPEPVTVSWNSGALTSGVHTFPAVLQSSGLYSLSSVVTVPSSSLGTQTYICNVNHKPSNTKVDKRVEPKSCDKTHTCPPCPAPEAAGGPSVFLFPPKPKDTLMISRTPEVTCVVVDVSHEDPEVKFNWYVDGVEVHNAKTKPREEQYNSTYRVVSVLTVLHQDWLNGKEYKCKVSNKALPAPIEKTISKAKGQPREPQVYTLPPSREEMTKNQVSLWCLVKGFYPSDIAVEWESNGQPENNYKTTPPVLDSDGSFFLYSKLTVDKSRWQQGNVFSCSVMHEALHNHYTQKSLSLSPGGGGSGGGSGGGDIQMTQTTSSLSASLGDRVTISCRASQDISNYLNWYQQKPDGTVKLLIYYTSRLHSGVPSRFSGSGSGTDYSLTISNLEQEDIATYFCQQGNTLPYTFGGGTKLEIKGGGSGGGGQVQLQQPGAELVRPGASVKLSCKASGYTFTSYWINWVKQRPGQGLEWIGNIYPSDSYTNYDQKFKDKATLTVDKSSSTAYMQLSSPTSEDSAVYYCTKSGEYGKIGYYAMDYWGQGTSVTVSSGGCGGGEVAALEKEVAALEKEVAALEKEVAALEK chain 2: DIQMTQTTSSLSASLGDRVTISCRASQDISNYLNWYQQKPDGTVKLLIYYTSRLHSGVPSRFSGSGSGTDYSLTISNLEQEDIATYFCQQGNTLPYTFGGGTKLEIKGGGSGGGGQVQLQQPGAELVRPGASVKLSCKASGYTFTSYWINWVKQRPGQGLEWIGNIYPSDSYTNYDQKFKDKATLTVDKSSSTAYMQLSSPTSEDSAVYYCTKSGEYGKIGYYAMDYWGQGTSVTVSSGGCGGGKVAALKEKVAALKEKVAALKEKVAALKE | ~0.5 | ~0.5
2 | DART-5 (bispecific antibody, human IgG1, kappa, L234A L235A) heavy: QVQLVQSGAEVKKPGASVKVSCKASGYTFTNYGMNWVRQAPGQGLEWMGWINTNIGEPTYTEEFKGRVTMTRDTSISTAYMELSRLRSDDTAVYYCARDDGYGNRVSYWGQGTLVTVSSASTKGPSVFPLAPSSKSTSGGTAALGCLVKDYFPEPVTVSWNSGALTSGVHTFPAVLQSSGLYSLSSVVTVPSSSLGTQTYICNVNHKPSNTKVDKRVEPKSCDKTHTCPPCPAPEAAGGPSVFLFPPKPKDTLMISRTPEVTCVVVDVSHEDPEVKFNWYVDGVEVHNAKTKPREEQYNSTYRVVSVLTVLHQDWLNGKEYKCKVSNKALPAPIEKTISKAKGQPREPQVYTLPPSREEMTKNQVSLSCAVKGFYPSDIAVEWESNGQPENNYKTTPPVLDSDGSFFLVSKLTVDKSRWQQGNVFSCSVMHEALHNRYTQKSLSLSPGK light: DIQMTQSPSSLSASVGDRVTITCKASQDISNYLSWFQQKPGKAPKTLIYRANRLQSGVPSRFSGSGSGTDFTLTISSLQPEDFATYYCLQHDEFPWTFGQGTKLEIKRTVAAPSVFIFPPSDEQLKSGTASVVCLLNNFYPREAKVQWKVDNALQSGNSQESVTEQDSKDSTYSLSSTLTLSKADYEKHKVYACEVTHQGLSSPVTKSFNRGEC chain 1: QVQLVQSGAEVKKPGASVKVSCKASGYTFTNYGMNWVRQAPGQGLEWMGWINTNIGEPTYTEEFKGRVTMTRDTSISTAYMELSRLRSDDTAVYYCARDDGYGNRVSYWGQGTLVTVSSASTKGPSVFPLAPSSKSTSGGTAALGCLVKDYFPEPVTVSWNSGALTSGVHTFPAVLQSSGLYSLSSVVTVPSSSLGTQTYICNVNHKPSNTKVDKRVEPKSCDKTHTCPPCPAPEAAGGPSVFLFPPKPKDTLMISRTPEVTCVVVDVSHEDPEVKFNWYVDGVEVHNAKTKPREEQYNSTYRVVSVLTVLHQDWLNGKEYKCKVSNKALPAPIEKTISKAKGQPREPQVYTLPPSREEMTKNQVSLWCLVKGFYPSDIAVEWESNGQPENNYKTTPPVLDSDGSFFLYSKLTVDKSRWQQGNVFSCSVMHEALHNHYTQKSLSLSPGGGGSGGGSGGGSYELTQPPSVSVSPGQTASITCSGDNIGDQYAHWYQQKPGQSPVLVIYQDKNRPSGIPERFSGSNSGNTATLTISGTQAMDEADYYCATYTGFGSLAVFGGGTKLTVLGGGSGGGGEVQLVQSGAEVKKPGESLRISCKGSGYSFSTYWISWVRQMPGKGLEWMGKIYPGDSYTNYSPSFQGQVTISADKSISTAYLQWSSLKASDTAMYYCARGYGIFDYWGQGTLVTVSSGGCGGGEVAALEKEVAALEKEVAALEKEVAALEK chain 2: SYELTQPPSVSVSPGQTASITCSGDNIGDQYAHWYQQKPGQSPVLVIYQDKNRPSGIPERFSGSNSGNTATLTISGTQAMDEADYYCATYTGFGSLAVFGGGTKLTVLGGGSGGGGEVQLVQSGAEVKKPGESLRISCKGSGYSFSTYWISWVRQMPGKGLEWMGKIYPGDSYTNYSPSFQGQVTISADKSISTAYLQWSSLKASDTAMYYCARGYGIFDYWGQGTLVTVSSGGCGGGKVAALKEKVAALKEKVAALKEKVAALKE |  | ~0.5
3 | DART-1 (bispecific antibody) chain 1: not shown chain 2: EIVLTQSPATLSLSPGERATLSCRASQSVSSYLAWYQQKPGQAPRLLIYDASNRATGIPARFSGSGSGTDFTLTISSLEPEDFAVYYCQQRSNWPPALTFGGGTKVEIKGGGSGGGGQVQLVQSGAEVKKPGASVKVSCKASGYTFTNYGMNWVRQAPGQGLEWMGWINTNIGEPTYTEEFKGRVTMTRDTSISTAYMELSRLRSDDTAVYYCARDDGYGNRVSYWGQGTLVTVSSGGCGGGKVAACKEKVAALKEKVAALKEKVAALKE | ~0.1 | ~0.4
